Here are results for 1 protein from patent US20100267609.

Data set [1] deals with T1, substrate EEISEVNLAAEF
T1 chain: EEISEVNLAAEF

In data set [2] the target is T2, substrate RWHHEVNLAAEF
T2 chain: RWHHEVNLAAEF

Data set [3] addresses T3, substrate EVNLAVEFWHDR
T3 chain: EVNLAVEFWHDR

B1: memapsin 2 (spontaneously activated promemapsin 2-T1; amino acids 43-456 and 45-456 of SEQ ID NO: 8) (protein)
chain: LRLPRETDEEPEEPGRRGSFVEMVDNLRGKSGQGYYVEMTVGSPPQTLNILVDTGSSNFAVGAAPHPFLHRYYQRQLSSTYRDLRKGVYVPYTQGKWEGELGTDLVSIPHGPNVTVRANIAAITESDKFFINGSNWEGILGLAYAEIARPDDSLEPFFDSLVKQTHVPNLFSLGLCGAGFPLNQSEVLASVGGSMIIGGIDHSLYTGSLWYTPIRREWYYEVIIVRVEINGQDLKMDCKEYNYDKSIVDSGTTNLRLPKKVFEAAVKSIKAASSTEKFPDGFWLGEQLVCWQAGTTPWNIFPVISLYLMGEVTNQSFRITILPQQYLRPVEDVATSQDDCYKFAISQSSTGTVMGAVIMEGFYVVFDRARKRIGFAVSACHVHDEFRTAAVEGPFVTLDMEDCGYNIPQTDEST
With B1, the “rate of catalysis, competitive cleavage of a mixture of three peptides (MALDI-TOF)” value in data set [1] is “statistically identical rates of catalysis for the upstream EEIS (SEQ ID NO: 52) and the downstream WHDR (SEQ ID NO: 29) sequence additions”. Besides, in data set [2], the “rate of catalysis, competitive cleavage of a mixture of three peptides (MALDI-TOF)” value was “the RWHH (SEQ ID NO: 53) sequence addition still demonstrated a 60-fold decrease in catalytic rate” and the “rate of catalysis, competitive cleavage of a mixture of two peptides (MALDI-TOF), against EVNLAAEFWHDR” value was “a 60-fold decrease in the rate of catalysis for the upstream RWHH (SEQ ID NO: 53) sequence addition when compared to the downstream WHDR (SEQ ID NO: 29) sequence addition”. Besides, the Km result in data set [3] is reported as “Km of 83±8.9 mM”.
